In this experiment the target is T1, TRF/Vmw 65/CFF complex (Homo sapiens, UniProt P51610).
T1 construct: A nuclear extract of HeLa cells was prepared; from tissue; host or cells: HeLa cell nuclear extract (TRF, CFF)
The experiment in a line: Peptide inhibition of quaternary complex assembly (gel retardation with HeLa nuclear extract, purified Vmw 65 and 32P-labelled TAATGARAT probe). The class given is biochemical, HSV-1. Set-up: key to Level of Inhibition: "+++" indicates a high level inhibition of complex formation; "++" indicates a lower level and so on; "-" indicates no inhibition of complex formation. The protocol:
A nuclear extract of HeLa cells was prepared exactly as described by Dignam et al., Nucl. Acids. Res. 11 1475-1489, (1983) (This is a standard protocol for the preparation of extracts containing cellular DNA binding proteins). Polypeptides from Vmw 65 amino acids were synthesised by Cambridge Research Biochemicals Ltd., Cambridge, UK, under contract, in accordance with the sequence set forth above. 1 μl volumes of phosphate buffered saline containing increasing amounts (100 ng, 500 ng, 1 μg, 2.5 μg, 5μg) of the polypeptide (amino acids 360-367) was added to a standard amount of HeLa cell nuclear extract (1 μl extract per 2 μg polypeptide). After incubation at 20° C. for 30 minutes a 1 μl sample of Vmw 65 protein, purified as described by P. O'Hare et al., EMBO J. 7: 4231-4238 (1988) was added to the extract polypeptide mixtures and incubation continued for a further 5 minutes in a buffer containing 25 mM HEPES pH 7.9, 1 mM EDTA, 5 mM DTT, 100 mM KCl, 0.05% NP40 10% glycerol, and 2 μg of salmon sperm DNA. A ^32 P radioactively labelled probe present in excess and encompassing nucleotides -171 to -149 (numbered starting upstream of the site of mRNA transcription: the TAATGARAT sequence is at -162 to -154) of the immediate-early IE110K gene of HSV-1 was then added and incubation continued for a further 25 minutes. […]

T1 sequence (P51610 whole entry, one chain of several): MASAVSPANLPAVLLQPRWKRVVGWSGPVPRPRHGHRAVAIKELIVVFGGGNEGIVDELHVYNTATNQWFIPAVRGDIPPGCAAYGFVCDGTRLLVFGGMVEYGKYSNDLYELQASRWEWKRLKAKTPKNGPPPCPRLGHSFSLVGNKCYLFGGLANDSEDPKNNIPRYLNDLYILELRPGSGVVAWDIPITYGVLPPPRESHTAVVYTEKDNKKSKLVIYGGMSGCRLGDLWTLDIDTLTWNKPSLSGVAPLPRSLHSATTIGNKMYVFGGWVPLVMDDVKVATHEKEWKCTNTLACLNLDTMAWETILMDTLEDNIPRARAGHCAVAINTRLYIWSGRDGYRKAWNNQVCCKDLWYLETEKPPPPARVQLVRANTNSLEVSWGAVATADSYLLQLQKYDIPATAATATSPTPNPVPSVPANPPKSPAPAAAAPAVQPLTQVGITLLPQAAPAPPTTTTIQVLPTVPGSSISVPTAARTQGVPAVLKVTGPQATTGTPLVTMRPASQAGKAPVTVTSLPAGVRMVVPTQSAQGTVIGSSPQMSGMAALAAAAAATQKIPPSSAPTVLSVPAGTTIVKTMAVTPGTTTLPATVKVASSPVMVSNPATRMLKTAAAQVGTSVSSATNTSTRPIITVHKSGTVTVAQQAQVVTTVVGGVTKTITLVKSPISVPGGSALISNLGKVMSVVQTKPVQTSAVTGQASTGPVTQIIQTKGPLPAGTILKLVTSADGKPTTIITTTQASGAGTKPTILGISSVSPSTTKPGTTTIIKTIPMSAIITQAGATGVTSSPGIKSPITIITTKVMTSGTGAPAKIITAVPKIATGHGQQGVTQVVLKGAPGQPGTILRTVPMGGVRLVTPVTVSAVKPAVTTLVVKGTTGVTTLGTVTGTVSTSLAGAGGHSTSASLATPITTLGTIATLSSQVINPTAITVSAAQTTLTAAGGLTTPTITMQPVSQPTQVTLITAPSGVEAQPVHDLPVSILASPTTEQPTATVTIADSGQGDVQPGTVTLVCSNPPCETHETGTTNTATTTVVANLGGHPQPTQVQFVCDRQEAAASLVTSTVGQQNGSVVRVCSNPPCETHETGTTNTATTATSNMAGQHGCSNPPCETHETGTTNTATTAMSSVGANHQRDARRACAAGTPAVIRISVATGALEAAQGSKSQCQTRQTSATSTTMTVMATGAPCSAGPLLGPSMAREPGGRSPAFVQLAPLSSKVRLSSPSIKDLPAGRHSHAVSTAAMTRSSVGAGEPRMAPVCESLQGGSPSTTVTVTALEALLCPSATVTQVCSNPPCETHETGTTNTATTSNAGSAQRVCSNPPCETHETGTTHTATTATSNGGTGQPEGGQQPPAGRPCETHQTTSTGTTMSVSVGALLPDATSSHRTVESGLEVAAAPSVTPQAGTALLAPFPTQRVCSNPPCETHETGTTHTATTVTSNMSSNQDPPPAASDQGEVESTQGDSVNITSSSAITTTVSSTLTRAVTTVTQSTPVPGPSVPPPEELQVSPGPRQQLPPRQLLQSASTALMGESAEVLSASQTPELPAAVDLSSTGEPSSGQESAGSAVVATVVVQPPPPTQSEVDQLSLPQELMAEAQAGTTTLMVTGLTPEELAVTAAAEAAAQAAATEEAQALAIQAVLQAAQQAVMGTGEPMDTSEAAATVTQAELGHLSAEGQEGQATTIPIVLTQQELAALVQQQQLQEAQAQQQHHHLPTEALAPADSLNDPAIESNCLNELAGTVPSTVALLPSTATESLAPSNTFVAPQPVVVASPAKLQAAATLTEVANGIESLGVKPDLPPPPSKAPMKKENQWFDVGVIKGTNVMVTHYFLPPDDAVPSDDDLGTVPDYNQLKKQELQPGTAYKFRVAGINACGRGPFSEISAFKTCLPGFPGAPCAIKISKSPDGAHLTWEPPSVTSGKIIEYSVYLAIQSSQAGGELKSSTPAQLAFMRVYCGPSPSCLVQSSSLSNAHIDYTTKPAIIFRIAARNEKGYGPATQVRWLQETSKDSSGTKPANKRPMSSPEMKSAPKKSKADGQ

Turning to “355-367: polypeptide of region 355-367 of Vmw 65; 360-367 inhibitory region with 355-359 flanking stabilizing region”, where the note is “inhibition of complex formation, experiment of Example 1 repeated with various Vmw-65 polypeptides”, the “Level of Inhibition” value was “+++”. Besides, the “inhibiting complex formation (result in words)” value (summary of the Table) was “effective”.

These data come from patent US5650488A, “Polypeptide inhibitor of the replication of HSV” (British Technology Group Limited, priority 1991, dated 1997).
